Data on five sequences can be found in article PMC8805025.

The series concerns CcNsdD2-C (C-terminal DNA-binding domain of CcNsdD2) (Coprinopsis cinerea AmutBmut (pab1-1)), ORF:b1e54c23. Briefly: EMSA. The note with it: EMSA: 30 uL, 1x EMSA binding buffer (composition not given), 1.5 ug salmon sperm DNA, 50 ng probe, 4 ug CcNsdD2-C, 37 C 30 min; 5% PAGE in 1x TBE pH 8.3. (A gel shift assay detects complexes by their altered migration in electrophoresis.)
CcNsdD2-C (C-terminal DNA-binding domain of CcNsdD2) (Coprinopsis cinerea AmutBmut (pab1-1)), ORF:b1e54c23, sequence (chain, as listed by the source): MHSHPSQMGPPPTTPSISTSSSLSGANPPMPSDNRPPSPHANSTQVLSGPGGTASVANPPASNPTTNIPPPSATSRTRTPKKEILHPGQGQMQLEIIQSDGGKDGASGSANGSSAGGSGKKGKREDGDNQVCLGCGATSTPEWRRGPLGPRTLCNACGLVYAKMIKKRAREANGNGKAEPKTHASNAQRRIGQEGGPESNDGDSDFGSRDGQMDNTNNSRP

For “AGCACGTGGTCGAAAGCCGTGGTTGGGCAGATGTGGTGGGTGAAGATCGGCAAAAATAACAGGACGCGATCTATGAAAAGTCACGGATTCGCGAAGGGGGCAAATAGATCGCGTAGGAGCAAAAGGCGTGTGCATCGCGCGCTTTGGTTACTTTCGACCACGTGCT (double strand) [cfs1 promoter probe]”, the binding result is “binds”.

On to “AGCACGTGGTCGAAAGTCAGACGAAATCGCCGATTCGCCGAACTCAAGGCCAAATGCATTTTAAACTCCGATCTCGGTGGGTCGCTCACCGATAGATCTCAAAACGATTTCGTTTCTGTGACGAGCATGGCTTCGACGCATTATCCAACGGCTCCTTTCGACCACGTGCT (double strand) [nsdD1 promoter probe]”, for which the binding result was “binds”.

With “AGCACGTGGTCGAAAGGAAGTTGCTGTATACTCGATGACACTCAAGAGTGAGAGGGTTTCGGCCCGTGAGAGTTTCAAGCGGAGATCAAAAGCGATACAGTGATTAGATTAAAACAACGAGTAGATAAGATGGAGATCTTTCGACCACGTGCT (double strand) [cfs2 promoter probe]”, the binding result is reported as “binds”.

In the case of “AGCACGTGGTCGAAAGTTCGCAATTTCATTGCATCCCTGAGCCACCTGACCACCGGAGATCGCTGAATATTGCTTGGGCCAGATATGACCAGAGTTAGCTTGATAGATCGGCATCCCCAATGACGGAGATGAAGTCGGAAGAGCCGAATCCTTTCGACCACGTGCT (double strand) [cgl1 promoter probe]”, the binding entry is listed as “binds”.

For the sequence “AGCACGTGGTCGAAAGCGTACTGTGGAGCAGGGAGAACGTTTGAAGATACCGAAGAAGCATCGGCTAGACCAAATCAAGCAGATCGGTGTACAGATATAGAATGTTTAGCTTGTTATTCGGTTCCAAGGAATACAGTCACAGCTCAGGAGCTTTCGACCACGTGCT (double strand) [hyd1 promoter probe]”, the binding entry was “binds”.
